Assay results from patent US8840891 (RSR, dated 2014).

What was measured:
Assay in all cases: cell-based or functional assay
[1] = molecular target: human TSHR, wild type, expressed on CHO cells (human) (UniProt P16473)
[2] = molecular target: human TSHR with activating mutation S281I, on CHO cells (human) (UniProt P16473)
[3] = molecular target: TSHR with Lys209 mutated to Alanine expressed on CHO cells (human) (UniProt P16473)
[4] = molecular target: wild type human TSHR (thyrotropin receptor) expressed on CHO cells (human) (UniProt P16473)

B1: 5C9 IgG (human monoclonal autoantibody to the TSHR) (antibody, from another filing, V domains shown)
VH: EVQLVESGGGLIQPGGSLRLSCAASGFTVSSNYMSWVRQAPGKGLEWVSVTYSGGSTSYADSVKGRFTISRDNSKNTLYLQMNSLRAEDTAVYYCARGGRYCSSISCYARSGCDYWGQGTLVTVSS
VL: AIQMTQSPSSLSASVGDRVTITCRASQSISNYLNWYQQKPGKAPKLLIYAASSLQSGVPSRFSGSGSGTDFTLTISSLQPEDFATYYCQQSYSSPSTTFGQGTKLEIK
**Q.** Which results are given for B1?
**A.** cyclic AMP; Exp 3; 5C9 100 µg/mL + TSH 3 ng/mL [1]: 1.4 pmol/mL; cyclic AMP; Exp 3; 5C9 100 µg/mL only [1]: 0.5 pmol/mL; cyclic AMP; Exp 3; native human TSH 100 ng/mL + 5C9 IgG 0.001 µg/mL [1]: 36 pmol/mL; cyclic AMP; Exp 3; native human TSH 100 ng/mL + 5C9 IgG 0.01 µg/mL [1]: 28.4 pmol/mL; cyclic AMP; Exp 3; native human TSH 100 ng/mL + 5C9 IgG 0.1 µg/mL [1]: 7.22 pmol/mL; cyclic AMP; Exp 3; native human TSH 100 ng/mL + 5C9 IgG 1.0 µg/mL [1]: 0.67 pmol/mL; cyclic AMP; Exp 3; native human TSH 100 ng/mL + 5C9 IgG 10 µg/mL [1]: 0.8 pmol/mL; cyclic AMP; Exp 3; native human TSH 100 ng/mL + 5C9 IgG 100 µg/mL [1]: 1.35 pmol/mL; cyclic AMP; Exp 3; native porcine TSH 0.3 ng/mL + 5C9 IgG 0.001 µg/mL [1]: 38.2 pmol/mL; cyclic AMP; Exp 3; native porcine TSH 0.3 ng/mL + 5C9 IgG 0.01 µg/mL [1]: 26.6 pmol/mL; cyclic AMP; Exp 3; native porcine TSH 0.3 ng/mL + 5C9 IgG 0.1 µg/mL [1]: 10.1 pmol/mL; cyclic AMP; Exp 3; native porcine TSH 0.3 ng/mL + 5C9 IgG 1.0 µg/mL [1]: 2.28 pmol/mL; cyclic AMP; Exp 3; native porcine TSH 0.3 ng/mL + 5C9 IgG 10 µg/mL [1]: 0.68 pmol/mL; cyclic AMP; Exp 3; native porcine TSH 0.3 ng/mL + 5C9 IgG 100 µg/mL [1]: 1.03 pmol/mL; cyclic AMP; Exp 3; recombinant human TSH 100 ng/mL + 5C9 IgG 0.001 µg/mL [1]: 25.6 pmol/mL; cyclic AMP; Exp 3; recombinant human TSH 100 ng/mL + 5C9 IgG 0.01 µg/mL [1]: 22.9 pmol/mL; cyclic AMP; Exp 3; recombinant human TSH 100 ng/mL + 5C9 IgG 0.1 µg/mL [1]: 1.18 pmol/mL; cyclic AMP; Exp 3; recombinant human TSH 100 ng/mL + 5C9 IgG 1.0 µg/mL [1]: 0.81 pmol/mL; cyclic AMP; Exp 3; recombinant human TSH 100 ng/mL + 5C9 IgG 10 µg/mL [1]: 0.74 pmol/mL; cyclic AMP; Exp 3; recombinant human TSH 100 ng/mL + 5C9 IgG 100 µg/mL [1]: 0.88 pmol/mL; cyclic AMP; Exp 4; 5C9 0.1 µg/mL + TSH 0.3 ng/mL [1]: 6.2 pmol/mL; cyclic AMP; Exp 4; 5C9 1 µg/mL + TSH 0.3 ng/mL [1]: 1.65 pmol/mL; cyclic AMP; Exp 4; 5C9 10 µg/mL + TSH 0.3 ng/mL [1]: 0.23 pmol/mL; cyclic AMP; Exp 4; 5C9 100 µg/mL + TSH 0.3 ng/mL [1]: 0.29 pmol/mL; cyclic AMP; Exp 4; 5C9 100 µg/mL only [1]: 0.15 pmol/mL; cyclic AMP; Exp 5; 5C9 0.1 µg/mL + TSH 0.3 ng/mL [1]: 12.4 pmol/mL; cyclic AMP; Exp 5; 5C9 1 µg/mL + TSH 0.3 ng/mL [1]: 2.57 pmol/mL; cyclic AMP; Exp 5; 5C9 5 µg/mL + TSH 0.3 ng/mL [1]: 1.21 pmol/mL; cyclic AMP; Exp 5; 5C9 10 µg/mL + TSH 0.3 ng/mL [1]: 1.17 pmol/mL; cyclic AMP; Exp 5; 5C9 10 µg/mL only [1]: 0.38 pmol/mL; cyclic AMP; TSMAb 1 1 µg/mL + 5C9 IgG 100 µg/mL [1]: 1.24 pmol/mL; cyclic AMP; TSMAb 2 1 µg/mL + 5C9 IgG 100 µg/mL [1]: 2.26 pmol/mL; cyclic AMP; TSMAb 4 10 ng/mL + 5C9 IgG 100 µg/mL [1]: 2.2 pmol/mL; cyclic AMP; TSMAb 5 100 ng/mL + 5C9 IgG 100 µg/mL [1]: 0.85 pmol/mL; cyclic AMP; TSMAb 7 100 ng/mL + 5C9 IgG 100 µg/mL [1]: 1.26 pmol/mL; % inhibition of basal cyclic AMP activity; 5C9 IgG 1 µg/mL [2]: 71%; Cyclic AMP produced; 5C9 0.01 µg/mL + TSH (fmol/cell well) [3]: 5960; Cyclic AMP produced; 5C9 0.1 µg/mL + TSH (fmol/cell well) [3]: 278; Cyclic AMP produced; 5C9 1.0 µg/mL + TSH (fmol/cell well) [3]: 360; Cyclic AMP produced; 5C9 10 µg/mL + TSH (fmol/cell well) [3]: 482; Cyclic AMP produced; 5C9 100 µg/mL + TSH (fmol/cell well) [3]: 354; Cyclic AMP produced; 5C9 100 µg/mL only (fmol/cell well) [3]: 280; Mutated/wild type (%); 5C9 0.01 µg/mL + TSH [3]: 39%; Mutated/wild type (%); 5C9 0.1 µg/mL + TSH [3]: 6%; Mutated/wild type (%); 5C9 1.0 µg/mL + TSH [3]: 30%; Mutated/wild type (%); 5C9 10 µg/mL + TSH [3]: 49%; Mutated/wild type (%); 5C9 100 µg/mL + TSH [3]: 59%; Mutated/wild type (%); 5C9 100 µg/mL only [3]: 103%; Cyclic AMP produced; 5C9 0.01 µg/mL + TSH (fmol/cell well) [4]: 15400; Cyclic AMP produced; 5C9 0.1 µg/mL + TSH (fmol/cell well) [4]: 4700; Cyclic AMP produced; 5C9 1.0 µg/mL + TSH (fmol/cell well) [4]: 1180; Cyclic AMP produced; 5C9 10 µg/mL + TSH (fmol/cell well) [4]: 984; Cyclic AMP produced; 5C9 100 µg/mL + TSH (fmol/cell well) [4]: 602; Cyclic AMP produced; 5C9 100 µg/mL only (fmol/cell well) [4]: 272
